Experiment [1] deals with T1, B7-H3 antigen H4M (human 4Ig B7-H3 amino acids 27-461 with N-terminal 10 His tag and C-terminal Myc tag) (human, UniProt Q5ZPR3 27-461, Biotinylated in the phage ELISA (labeling amount approximately 2.5, sites not stated); not biotinylated in the scFv protein ELISA).
T1 construct: Expressed in Expi293; also called biotinylated B7-H3 antigen H4M; not shown: any linker between the tags and the B7-H3 part is not described
T1 sequence: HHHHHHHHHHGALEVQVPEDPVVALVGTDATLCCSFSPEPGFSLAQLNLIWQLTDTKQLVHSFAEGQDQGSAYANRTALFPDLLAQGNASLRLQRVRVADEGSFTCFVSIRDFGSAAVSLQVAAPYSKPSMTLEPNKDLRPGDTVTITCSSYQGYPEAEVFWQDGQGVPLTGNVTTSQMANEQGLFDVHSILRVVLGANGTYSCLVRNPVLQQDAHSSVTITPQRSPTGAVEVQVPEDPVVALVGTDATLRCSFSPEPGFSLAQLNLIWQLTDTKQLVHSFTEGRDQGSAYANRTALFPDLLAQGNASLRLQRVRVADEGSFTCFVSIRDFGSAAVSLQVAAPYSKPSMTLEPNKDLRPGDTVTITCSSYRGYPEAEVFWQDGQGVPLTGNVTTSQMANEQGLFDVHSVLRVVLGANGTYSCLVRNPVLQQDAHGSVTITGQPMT
The experiment in a line: scFv protein ELISA on coated H4M. The protocol: ELISA screening of scFv protein: B7-H3 antigen H4M was taken and dissolved at room temperature, then diluted with coating buffer to 2 ng/ml, and aliquoted into a hydrophobic enzyme-labeled plate at 100 μL/well, while 100 μL coating buffer only were pipetted into another 3 wells as a blank control, incubated overnight at 2-8° C. 100 μL of scfv protein sample was pipetted into each well, then the plate was placed into the microplate shaker, incubating for 1 hour at 37° C. and 600 rpm. After discarding the liquid, the plate was washed for 3 times with washing buffer. Then diluted enzyme-linked antibody was aliquoted into each well at 100 μL/well, placed into the microplate shaker, incubating at 37° C., 600 rpm for 1 hour. After discarding the liquid, the plate was washed for 3 times. Then TMB chromogenic solution was aliquoted in at 100 μL/well and incubated for 15 minutes, then 1 mol/L H₂SO₄ stop solution was aliquoted at 100 μL/well to stop the reaction. A microplate reader was used to measure the absorbance at 450 nm with a wavelength of 650 nm as the reference wavelength.

The target of experiment [2] is T1, B7-H3 antigen H4M (human 4Ig B7-H3 …). The experiment in a line: phage ELISA, scFv displayed on phage, biotinylated H4M captured on streptavidin. As to the method:
Phage ELISA screening: streptavidin with a concentration of 1 mg/ml was taken and dissolved at room temperature, after being mixed, it was diluted gradually with coating buffer to 5 μg/ml. 100 μL/well of which was then pipetted into each well in a 96-well plate, and 100 μL coating buffer only were pipetted into another 3 wells as a blank control, incubated overnight at 2-8° C. The biotinylated B7-H3 antigen H4M was taken and diluted with 0.5% BSA-PBST diluent to […], then 100 μL of which at a concentration of 20 ng/ml was pipetted into the streptavidin-coated wells, and placed into a microplate shaker. After shaking at 37° C. and 600 rpm for 1 hour, the liquid was discarded, the plate was washed for 3 times with washing buffer and pat dry. The positive phage obtained in the second or third round of panning was taken and dissolved at room temperature, after being mixed, it was diluted 500 times with the diluent. The diluted phage was aliquoted into the microtiter plate at an amount of 100 μL/well, and placed in a microplate shaker, incubating at 37° C. and 600 rpm for 1 hour. After discarding the liquid, the plate was washed for 3 times with washing buffer. Then 100 μL of diluted HRP/Anti-M137 enzyme-linked antibody was aliquoted into each well, placed into the microplate shaker, incubating at 37° C., 600 rpm for 1 hour. After discarding the liquid, the plate was washed for 3 times. Then TMB chromogenic solution was aliquoted in at 100 μL/well and incubated for color development for 15 minutes, then 1 mol/L H₂SO₄ stop solution was aliquoted at 100 μl/well to stop the reaction. A microplate reader was used to measure the absorbance at 450 nm with a wavelength of 650 nm as the reference wavelength.
In general terms: In an ELISA, binding on a coated surface is turned into a signal by an enzyme label.

Experiment [3] has as its target T2, IgV domain of B7-H3 (human, UniProt Q5ZPR3 30-130).
T2 sequence: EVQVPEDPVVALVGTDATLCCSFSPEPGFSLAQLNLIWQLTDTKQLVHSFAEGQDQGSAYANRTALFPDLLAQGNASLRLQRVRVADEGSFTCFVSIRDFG
Briefly: ELISA on coated antigen, IgG1 antibody. As to the method:
Protein binding: 100 μL of antigen B7-H3 (R&D) at 20 ng/ml was coated onto microplate, incubated at 2-8° C. overnight. Subsequently, 100 μL of the prepared full-length IgG1 antibody described above was added with a total of 8 concentrations started from 2000 ng/ml and serially diluted with 3-fold, incubating at 37° C., 600 rpm for 1 hour. After the plate was washed for three times, Goat anti human IgG (Fc)-HRP enzyme-linked antibody was added and the plate was shook at 37° C. and 600 rpm for 1 hour. After the plate was washed for 4 times, TMB chromogenic solution was aliquoted in and incubated for 10 minutes, then 1 mol/L […] stop solution at 100 μL/well was aliquoted to stop the reaction and the absorbance was measured.

Consider seven molecules from patent US20220017620A1 (SHANGHAI FUDAN ZHANGJIANG BIO PHARMACEUTICAL, published 2022).

B1: P2E5 scFv (scFv)
scFv: QVTLKESGGGLVQPGGSLRLSCAASGFTFSNSYMTWVRQAPGMGLEWVASMKPDGSVKHYVDSVKGRFTISRDNTKNSLDLQMNSLRAEDTAVYYCSSYDTRWGWFDPWGEGTLVTVSSGSASAPTLGQGGGGGSGGGGSGGGGSQTVVTQEPSFSVSPGGTVTLTCGLNSGSVSTSYFPSWYQQTPGQAPRTLIYNTNTRSSGVPDRFSGSILGNKAALTITGAQADDESDYYCLLYMDSGPHWVFGGGTKLTVL
Regarding B1, in experiment [1], the “ELISA signal value of protein scFv” value is 0.84 absorbance 450 nm. For the same molecule, in experiment [2], the “ELISA signal value of Phage scFv” value was 0.74 absorbance 450 nm.

B2: P9A12 full-length IgG1 antibody (antibody, V domains shown)
VH: QVTLKESGGGLVQPGGSLRLSCAASGFTFSSYAMSWVRQAPGKGLEWVSAISGSGGSTYYADSVKGRFTISRDNSKNTLYLQMNSLRAEDTAVYYCARGAGIDAFDIWGQGTMVTVSS
VL: QSALTQPASVSGSPGQSITISCTGTSSDVGAYNYVTWYQQYPGKAPKLMIYDVSERPSGVSNRFSGSKSGNTASLTISGLQAEDEADYYCSSFTSSISWVFGGGTKLTVL
The molecule B2 had an ELISA signal value in experiment [3] of 0.3 to 0.5 elisasignalvalue.

B3: P1D1 scFv (scFv)
scFv: QVQLVQSGAEVKKPGESLKISCKGSGYSFTSYWIGWVRQMPGKGLEWMGIIYPGDSDTRYSPSFQGQVTISADKSISTAYLQWSSLKASDTAMYYCARRSVAGLDYWGQGTLVTVSSGSASAPTLGQGGGGGSGGGGSGGGGSKTVVTQPPSASGTPGQRVTISCSGSSSNIGSKYVYWYQQLPGTAPRLLIYRNNQRPSGVPDRFSGSKSGTSASLAISGLRSEDESDYYCASWDDRLKGYAFGTGTKVTVL
As to B3, in experiment [1], the “ELISA signal value of protein scFv” value is 2.97 absorbance 450 nm. Moreover, in experiment [2], the “ELISA signal value of Phage scFv” value was found to be 3.65 absorbance 450 nm.

B4: P2E3 scFv (scFv)
scFv: QVQLVQSGAEVKKPGESLKISCKGSGYSFTSYWIGWVRQMPGKGLEWMGIIYPGDSDTRYSPSFQGQVTISADKSISTAYLQWSSLKASDTAMYYCARRSREGFDPWGQGTLVTVSSGSASAPTLGQGGGGGSGGGGSGGGGSQAVLTQPSSASGTPGQRVTMSCSGAASNIGKNFVYWYQQLPGRAPRLLISRNIQRPSEVPDRFSGSKSGTSASLAISGLQSEDEADYYCAAWDDSLNGFVFGTGTAVTVL
For the molecule B4, in experiment [1], the “ELISA signal value of protein scFv” value came to 3.58 absorbance 450 nm. Further, the “ELISA signal value of Phage scFv” value in experiment [2] is 3.54 absorbance 450 nm.

B5: P3B9 scFv (scFv)
scFv: QIQLVQSGAEVKKPGESLKISCKGSGYSFTSYWIGWVRQMPGKGLEWMGIIYPGDSDTRYSPSFQGQVTISADKSISTAYLQWSSLKASDTAMYYCARRTPRGMDVWGQGTTVTVSSGSASAPTLGQGGGGGSGGGGSGGGGSQAVLTQPPSASGTPGQRVTISCSGSSSNIGSNYVYWYQQLPGTAPKLLIYRNNQRPSGVPDRFSGSKSGTSASLAISGLRSEDEADYYCAAWDDSLSGWVFGGGTKLTVL
In the case of B5, the “ELISA signal value of protein scFv” value in experiment [1] amounted to 3.39 absorbance 450 nm. Moreover, in experiment [2], the “ELISA signal value of Phage scFv” value amounted to 3.09 absorbance 450 nm.

B6: P7F10 full-length IgG1 antibody (antibody, V domains shown)
VH: QVQLQQSGGGLVQPGGSLRLSCAASGFTFSSYPMSWVRQAPGKGLEWVSVISGSGGSTFYADSVKGRFTISRDNSKNTLYLQVNSLRAEDTAVYYCAKDGRTLSGMDVWGQGTTVTVSS
VL: QPVLTQPPSASGTPGQRVTISCSGSSSNIGSNPVNWYQQLPGTAPKLLIYNNNQRPSGVPDRFSGSKSGTSGSLAISGLQSEDEAHYYCAAWDVSLKEVFGGGTKVTVL
For the molecule B6, in experiment [3], the ELISA signal value lay in the range of 0.6 to 1.5 elisasignalvalue.

B7: P1G2 scFv (scFv)
scFv: QVQLQQSGAEVKKPGSSVKVSCKASGGTFSSYAISWVRQAPGQGLEWMGRIIPILGIANYAQKFQGRVTITADKSTSTAYMELSSLRSEDTAVYYCAVNYYDSSGYYSDYWGQGTLVTVSSGSASAPTLGQGGGGGSGGGGSGGGGSSYELTQPPSASGSPGQSVTISCTGTSSDVGGYNYVSWYQQHPGKAPRLMIYGVSQRPSGVPDRFSGSKSGNTASLTVSGLQAEDEADYYCSSYANNNYVFGTGTKVTVL
With B7, the “ELISA signal value of protein scFv” value in experiment [1] amounted to 0.54 absorbance 450 nm. The “ELISA signal value of Phage scFv” value in experiment [2] is 3.55 absorbance 450 nm.
